“And” between values parts separate entries of the source, which are not always exact repeats. Identical values can stand only once. Like-named read-outs stand apart in the source and are kept apart here.

Test [1] concerns the target GST fused to the C-terminal residues 200-294 of HMPV P (strain CAN97-83) (human metapneumovirus strain CAN97-83).
The target in test [2] is HMPV nucleoprotein N (strain NL/00/1), assembled and RNA-bound (N-RNA) (human metapneumovirus strain NL/00/1) (UniProt Q6WBA1). Briefly: cryo-EM structure; single-particle cryo-EM of recombinant N-RNA (1.0 mg/ml) in 25 mM Tris-HCl pH 8.0, 250 mM NaCl; 2D classification and 3D reconstruction of 10-mer, 11-mer and spiral particles, local refinement of an N-RNA dimer.
Test [3] has the same target. Described as above. The source holds these as a separate data set.

“HMPV N (strain CAN97-83) with a C-terminal 6xHis tag, L111E (natural protein)”: the HMPV polymerase activity, minigenome assay (Firefly luciferase) in BSRT7/5 cells, compared to wild-type; N and full-length P of strain NL99-1 from pCite plasmids (% of wild-type) in test [1] stood at 10.

In the case of “HMPV nucleoprotein N (strain NL/00/1), assembled and RNA-bound (N-RNA) (from UniProt Q6WBA1 1-394) (natural protein)”, the stoichiometry N – broadly, a count of units in the complex or per binding partner – in test [2] is over 12 protomers; in test [3], 10 protomers and 11 protomers and 12 protomers.

As to “HMPV N (strain NL99-1, plasmid pN) triple mutant with alanines in positions 100, 103 and 111 (natural protein)”, the HMPV polymerase activity, minigenome assay (Firefly luciferase) in BSRT7/5 cells, compared to wild-type; N and full-length P of strain NL99-1 from pCite plasmids (% of wild-type) in test [1] amounted to 30.

In test [1], “HMPV N (strain NL99-1, plasmid pN) L111A (natural protein)” returned an HMPV polymerase activity, minigenome assay (Firefly luciferase) in BSRT7/5 cells, compared to wild-type; N and full-length P of strain NL99-1 from pCite plasmids (% of wild-type) of under 50.

(Values after paper PMC10665349.)
